# Publication PMC11835620, “CleanCap M6 inhibits decapping of exogenously delivered IVT mRNA”
# B1: AG 3'OH cap 43-mer (ssRNA)
# RNA: AGGAAAUAAGAGAGAAAAGAAGAGUAAGAAGAAAUAUAAGAGC
# modifications: 5' cap m7GpppA(2'OMe)G; A1 is 2'-O-methyl; cap m7G not in strand
# Molecular target: eIF4E (human, UniProt P06730 1-217)
# Experiment: EMSA; KD measured but printed only in the figure; higher affinity than M6 3'OMe; EMSA: 25 nM oligo, eIF4E 5 nM to 1.5 uM (2-fold dilutions), 100 mM NaCl, 50 mM Tris-Cl (pH and remaining components cut off in material), temperature not given
# Conditions: protein: recombinant; (stated for spectral shift oligos); single strand
# Chain of eIF4E (P06730 whole entry): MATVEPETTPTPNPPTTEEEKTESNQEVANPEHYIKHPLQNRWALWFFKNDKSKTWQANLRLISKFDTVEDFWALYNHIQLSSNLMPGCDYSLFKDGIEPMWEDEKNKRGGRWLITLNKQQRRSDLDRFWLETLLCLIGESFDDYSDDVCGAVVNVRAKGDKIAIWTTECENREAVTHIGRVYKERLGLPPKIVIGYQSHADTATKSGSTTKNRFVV
binder,measurement,value
B1,binding result,binds
